Results from US20240100176A1 (Eli Lilly, published 2024).

Columns and labels:
[1] = target: T1, hexahistidine tagged human IL-4Rα ECD D66R (human, UniProt P24394 26-232); assay: capture ELISA, His-tagged receptor mutant
T1 construct: also called D66R IL-4Rα; not shown: hexahistidine tag
Source text: Example 2d. […] Briefly, thirty surface amino acid residue substitutions were introduced individually into hexahistidine tagged human IL-4Rα extra cellular domain (ECD) as follows: K2D, E6R, K22D, P26R, T31R, F41A, L42G, L43G, E45R, E52R, G56R, D66R, A71R, Q82G, K87D, E94R, H107A, D108R, P124R, D125R, D143R, R148D, L155R, R160D, S164R, S168R, Q181R, P192R, K195D, or H197G. Each mutant protein having a single amino acid residue substitution as described above was transiently expressed in CHO cells and purified using standard immobilized metal affinity chromatography techniques. […] The plates were then washed 3 times with PBST and the exemplified human IL-4Rα antibody was added to the wells at a final concentration of 1 μg/mL in PBS-casein and incubated for 1 hour at room temperature. The plates were washed 3 times with PBST, the IL-4Rα mutant proteins were serially diluted 5-fold from 1 μg/mL for 3 points. in PBS-casein and added to the plate at 50 μL/well and incubated for 1 hour at room temperature. […] The plates were washed 3 times, TMB substrate (Pierce, Cat. #34028) was added per manufacturer instructions, the reaction was quenched with H₂SO₄, and absorbance was read at 450 nm on an ELISA plate reader.

[2] = target: T2, hexahistidine tagged human IL-4Rα ECD S168R (human, UniProt P24394 26-232); assay: capture ELISA: Ab1 on anti-human IgG Fc, His-tagged receptor at 1 µg/mL, anti-His HRP
T2 construct: not shown: hexahistidine tag
Source text: (§1) Example 2d. […] Briefly, thirty surface amino acid residue substitutions were introduced individually into hexahistidine tagged human IL-4Rα extra cellular domain (ECD) as follows: K2D, E6R, K22D, P26R, T31R, F41A, L42G, L43G, E45R, E52R, G56R, D66R, A71R, Q82G, K87D, E94R, H107A, D108R, P124R, D125R, D143R, R148D, L155R, R160D, S164R, S168R, Q181R, P192R, K195D, or H197G. Each mutant protein having a single amino acid residue substitution as described above was transiently expressed in CHO cells and purified using standard immobilized metal affinity chromatography techniques. […] The plates were then washed 3 times with PBST and the exemplified human IL-4Rα antibody was added to the wells at a final concentration of 1 μg/mL in PBS-casein and incubated for 1 hour at room temperature. The plates were washed 3 times with PBST, the IL-4Rα mutant proteins were serially diluted 5-fold from 1 μg/mL for 3 points. in PBS-casein and added to the plate at 50 μL/well and incubated for 1 hour at room temperature. The plates were washed 3 times with PBST and a 1000-fold dilution of anti-histidine tag antibody HRP conjugate (R&D Systems, Cat. #MAB050H) in PBS-casein was added and incubated for 45 minutes at room temperature. The plates were washed 3 times, TMB substrate (Pierce, Cat. #34028) was added per manufacturer instructions, the reaction was quenched with H₂SO₄, and absorbance was read at 450 nm on an ELISA plate reader.

[3] = target: T3, hexahistidine tagged human IL-4Rα ECD G56R (human, UniProt P24394 26-232); assay: as above
T3 construct: not shown: hexahistidine tag
Source text: as §1

[4] = target: T4, hexahistidine tagged human IL-4Rα ECD Q181R (human, UniProt P24394 26-232); assay: as above
T4 construct: not shown: hexahistidine tag
Source text: as §1

[5] = target: T5, human FcγRIIA_131R (CD32a) extracellular domain (human, UniProt P12318 34-217); assay: SPR (Biacore), antibody captured on protein A, FcγR ECD as analyte, steady state, 25 °C
T5 construct: extracellular domain
T5 sequence (looked up): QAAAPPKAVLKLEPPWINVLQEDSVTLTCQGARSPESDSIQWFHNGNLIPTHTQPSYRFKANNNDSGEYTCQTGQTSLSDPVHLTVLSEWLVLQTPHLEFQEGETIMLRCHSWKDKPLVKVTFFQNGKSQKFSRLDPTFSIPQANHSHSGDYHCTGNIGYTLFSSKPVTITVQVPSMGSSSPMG
Method: (§2) Unreacted sites were blocked with a 7 minute injection of ethanolamine at 10 μL/minute. Injections of 2×10 μL of glycine, pH 1.5, was used to remove any noncovalently associated protein. Running buffer was 1×HBS-EP+(TEKNOVA, P/N H8022). The FcγR extracellular domains (ECDs)-FcγRI (CD64), FcγRIIA_131R, and FcγRIIA_131H (CD32a), FcγRIIIA_158V, FcγRIIIA_158F (CD16a), and FcγRIIb (CD32b) were produced from stable CHO cell expression and purified using IgG Sepharose and size exclusion chromatography. For FcγRI binding, antibodies were diluted to […] in running buffer, and approximately 150 RU of each antibody was captured in FCs 2 through 4 (RU captured). FC1 was the reference FC, therefore no antibody was captured in FC1. […] Duplicate injections of each concentration were injected over all FCs at 40 μL/minute for 120 seconds followed by a 1200 second dissociation phase. Regeneration was performed by injecting 15 μL of 10 mM glycine, pH 1.5, at 30 μL/minute over all FCs. Reference-subtracted data was collected as FC2 FC1, FC3-FC1, and FC4-FC1 and the measurements were obtained at 25° C. The affinity (KD) was calculated using either steady state equilibrium analysis with the Scrubber 2 Biacore Evaluation Software or a “1:1 (Langmuir) binding” model in BIA Evaluation. For FcγRIIa, FcγRIIb, and FcγRIIIa binding, antibodies were diluted to 5 μg/mL in running buffer, and approximately 500 RU of each antibody was captured in FCs 2 through 4). FC1 was the reference FC. […] Duplicate injections of each concentration were injected over all FCs at 40 μL/minute for 60 seconds followed by a 120 second dissociation phase. Regeneration was performed by injecting 15 μL of 10 mM glycine, pH 1.5, at 30 μL/minute over all FCs. Reference-subtracted data was collected as FC2-FC1, FC3-FC1, and FC4-FC1, and the measurements were obtained at 25° C. The affinity (KD) was calculated using the steady state equilibrium analysis with the Scrubber 2 Biacore Evaluation Software. Each receptor was assayed at least two times.

[6] = target: T6, human FcγRIIIA_158V (CD16a) extracellular domain (human, UniProt P08637 17-208); assay: as above
T6 construct: extracellular domain
Method: as §2

[7] = target: T7, human FcγRIIb (CD32b) extracellular domain (human, UniProt P31994 43-217); assay: as above
T7 construct: extracellular domain
T7 sequence (looked up): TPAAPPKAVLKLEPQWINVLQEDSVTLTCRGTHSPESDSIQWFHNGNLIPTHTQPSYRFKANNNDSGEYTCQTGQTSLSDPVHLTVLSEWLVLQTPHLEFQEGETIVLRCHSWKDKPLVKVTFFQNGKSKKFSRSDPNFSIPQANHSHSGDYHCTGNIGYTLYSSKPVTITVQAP
Method: as §2

[8] = target: T8, human FcγRIIA_131H (CD32a) extracellular domain (human, UniProt P12318 34-217); assay: as above
T8 construct: extracellular domain
T8 sequence (looked up): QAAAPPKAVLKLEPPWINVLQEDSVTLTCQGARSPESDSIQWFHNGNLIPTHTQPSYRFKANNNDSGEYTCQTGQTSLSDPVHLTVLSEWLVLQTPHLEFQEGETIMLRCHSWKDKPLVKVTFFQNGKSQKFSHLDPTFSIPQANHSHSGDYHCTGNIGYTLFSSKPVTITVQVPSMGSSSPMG
Method: as §2

T4 sequence (P24394 26-232 Q206R): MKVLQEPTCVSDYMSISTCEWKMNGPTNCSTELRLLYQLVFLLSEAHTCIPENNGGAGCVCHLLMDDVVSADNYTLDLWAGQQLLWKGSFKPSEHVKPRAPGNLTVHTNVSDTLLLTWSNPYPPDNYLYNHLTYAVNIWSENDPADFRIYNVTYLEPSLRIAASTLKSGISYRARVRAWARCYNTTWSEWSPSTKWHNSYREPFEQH
T6 sequence (P08637 17-208 F176V): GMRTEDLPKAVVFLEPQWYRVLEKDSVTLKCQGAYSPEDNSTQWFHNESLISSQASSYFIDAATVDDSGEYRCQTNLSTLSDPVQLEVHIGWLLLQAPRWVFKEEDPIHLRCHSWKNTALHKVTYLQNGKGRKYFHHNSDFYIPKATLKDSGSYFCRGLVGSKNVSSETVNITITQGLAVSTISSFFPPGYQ

Binder | binding result [1] | ELISA (OD450) [2] | ELISA (OD450) [3] | ELISA (OD450) [4] | Kd [5] | Kd [6] | Kd [7] | Kd [8]
anti-human IL-4Rα antibody Ab1 (antibody, human IgG4 S228P, kappa, human kappa light chain; also called anti-human IL-4Rα Ab1; unconjugated Ab1) heavy: QVQLVESGGGLVQPGGSLRLSCVASGFTFSHSSMNWVRQAPGKGLEWVSYISRATGAVYYADSVKGRFTISRDNAKNSLYLQMNSLRDEDTAVYYCAREPVFDYWGQGTLVTVSSASTKGPCVFPLAPCSRSTSESTAALGCLVKDYFPEPVTVSWNSGALTSGVHTFPAVLQSSGLYSLSSVVTVPSSSLGTKTYTCNVDHKPSNTKVDKRVESKYGPPCPPCPAPEFLGGPSVFLFPPKPKDTLMISRTPEVTCVVVDVSQEDPEVKFNWYVDGVEVHNAKTKPREEQFNSTYRVVSVLTVLHQDWLNGKEYKCKVSNKGLPSSIEKTISKAKGQPREPQVYTLPPSREEMTKNQVSLTCLVKGFYPSDICVEWESNGQPENNYKTTPPVLDSDGSFFLYSRLTVDKSRWQQGNVFSCSVMHEALHNHYTQKSLSLSLG light: DIQMTQSPSAMSASVGDRVTITCRASQDISNYLAWFQQKPGKVPTRLIYAASSLQSGVPSRFSGSGSGTEFTLTISSLQPEDFATYYCLQWSSYPRTFGQGTKVEIKRTVAAPSVFIFPPSDEQLKSGTASVVCLLNNFYPREAKVQWKVDNALQSGNSQESVTEQDSKDSTYSLSSTLTLSKADYEKHKVYACEVTHQGLSSPVTKSFNRGEC | no binding (tested: 1 µg/mL) | 1.88 OD450 | 1.73 OD450 | 1.91 OD450 |  |  |  | 
anti-human IL-4Rα Ab1 GC conjugate of Example 1b (n=4) (antibody, human IgG4 S228P, kappa, glucocorticoid receptor agonist payload-linker (GC-L, Preparation 8) conjugated to the engineered cysteines at the 124 and 378 position of the heavy chain (EU numbering); n is 4 (average DAR 4.17 by RP-HPLC, 3.85 by TOF MS)) heavy: QVQLVESGGGLVQPGGSLRLSCVASGFTFSHSSMNWVRQAPGKGLEWVSYISRATGAVYYADSVKGRFTISRDNAKNSLYLQMNSLRDEDTAVYYCAREPVFDYWGQGTLVTVSSASTKGPCVFPLAPCSRSTSESTAALGCLVKDYFPEPVTVSWNSGALTSGVHTFPAVLQSSGLYSLSSVVTVPSSSLGTKTYTCNVDHKPSNTKVDKRVESKYGPPCPPCPAPEFLGGPSVFLFPPKPKDTLMISRTPEVTCVVVDVSQEDPEVKFNWYVDGVEVHNAKTKPREEQFNSTYRVVSVLTVLHQDWLNGKEYKCKVSNKGLPSSIEKTISKAKGQPREPQVYTLPPSREEMTKNQVSLTCLVKGFYPSDICVEWESNGQPENNYKTTPPVLDSDGSFFLYSRLTVDKSRWQQGNVFSCSVMHEALHNHYTQKSLSLSLG light: DIQMTQSPSAMSASVGDRVTITCRASQDISNYLAWFQQKPGKVPTRLIYAASSLQSGVPSRFSGSGSGTEFTLTISSLQPEDFATYYCLQWSSYPRTFGQGTKVEIKRTVAAPSVFIFPPSDEQLKSGTASVVCLLNNFYPREAKVQWKVDNALQSGNSQESVTEQDSKDSTYSLSSTLTLSKADYEKHKVYACEVTHQGLSSPVTKSFNRGEC |  |  |  |  | 1820 nM | 4920 nM | 1960 nM | 3650 nM
